Reference: patent US20180273635A1 (Zymeworks, published 2018)
Read-outs that look alike come from different tables or passages of the source.

What was measured:
Recombinant human HER2 [1] = biological target: T1, Recombinant human HER2 (human, UniProt P04626 23-652); test: SPR, post-SEC; ratio to WT v10013
T1 construct: extracellular domain; analyte of the SPR assays; also called HER2 ECD; ECD2 of HER2
Experimental: (§1) The affinity towards HER2 ECD of the samples was measured by SPR on a Biacore T200 as follows. Between 2000 and 4000 RU of anti-human Fc injected at concentration between 5 and 10 μg/ml was immobilized on a CM5 chip using standard amine coupling. Antigen-binding constructs were captured on the anti-human Fc (injected at concentration at 0.51 microg/mL in PBST, 1 min at 10 microl/min) at response levels ranging from 120-270 RU. […] HER2 dilutions were analyzed in duplicates. Sensograms were fit globally to a 1: 1 Langmuir binding model, using the software provided with the Biacore T200. All experiments were conducted at 25° C.
(§2) The affinity of antigen-binding constructs in OA format was determined by SPR following protein A purification. […] Antigen-binding constructs in FSA format were purified by protein A affinity and SEC prior to assessment of affinity by SPR.

Recombinant human HER2 [2] = biological target: T1, Recombinant human HER2; test: SPR, pre-SEC; ratio to WT v10013
Experimental: as §1, §2

Recombinant human HER2 [3] = biological target: T1, Recombinant human HER2; test: SPR, variant captured on anti-human Fc, HER2 flowed, 25 C, post-SEC
Experimental: as §1, §2

Recombinant human HER2 [4] = biological target: T1, Recombinant human HER2; test: SPR, variant captured on anti-human Fc, HER2 flowed, 25 C, pre-SEC
Experimental: as §1

Recombinant human HER2 [5] = biological target: T2, Recombinant human HER2 (human, UniProt P04626 23-652); test: SPR at 25 C of the OA variant, logarithm of the association constant
T2 construct: extracellular domain; Analyte of the SPR assays; also called HER2 ECD; ECD2 of HER2
Experimental: as §1

Recombinant human HER2 [6] = biological target: T2, Recombinant human HER2; test: calculated from the SPR Ka ratio to WT v10013;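 note: SPR at 25 °C with constructs captured on an anti-human Fc chip and HER2 extracellular domain as analyte, kinetics fitted to a 1:1 Langmuir model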
Recombinant human HER2 [7] = biological target: T2, Recombinant human HER2; test: SPR at 25 C of the OA variant, logarithm of the association constant; remark: listed apart in the source
Experimental: as §1

Recombinant human HER2 [8] = biological target: T2, Recombinant human HER2; test: SPR at 25 C of the OA variant, equilibrium association constant
Experimental: as §1

Recombinant human HER2 [9] = biological target: T2, Recombinant human HER2; test: SPR, Biacore T200, 25 C; variant captured on anti-human Fc, HER2 flowed;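 note: HER2 extracellular domain analyte run as duplicate dilutions over amine-coupled anti-Fc on a CM5 chip, rates from global sensorgram fitting with a 1:1 Langmuir model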
Recombinant human HER2 [10] = biological target: T2, Recombinant human HER2; test: SPR, 25 C; Ka ratio to WT v10013;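 note: constructs captured via anti-human Fc on CM5 chip, HER2 ECD as analyte in duplicate dilutions, sensorgrams globally fit to 1:1 Langmuir model on Biacore T200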
Experimental: as §1

Recombinant human HER2 [11] = biological target: T2, Recombinant human HER2; test: SPR at 25 C of the OA variant, equilibrium association constant; remark: listed apart in the source
Experimental: as §1

B1: variant 12529 (antibody, human IgG1, kappa)
heavy: EVQLVESGGGLVQPGGSLRLSCAASGFTFTDYTMDWVRQAPGKGLEWVADVNPNSGGSIYNQRFKGRFTLSVDRSKNTLYLQMNSLRAEDTAVYYCARNLGPSFYFDYWGQGTLVTVSSASTKGPSVFPLAPSSKSTSGGTAALGCLVKDYFPEPVTVSWNSGALTSGVHTFPAVLQSSGLYSLSSVVTVPSSSLGTQTYICNVNHKPSNTKVDKKVEPKSCDKTHTCPPCPAPELLGGPSVFLFPPKPKDTLMISRTPEVTCVVVDVSHEDPEVKFNWYVDGVEVHNAKTKPREEQYNSTYRVVSVLTVLHQDWLNGKEYKCKVSNKALPAPIEKTISKAKGQPREPQVYVYPPSRDELTKNQVSLTCLVKGFYPSDIAVEWESNGQPENNYKTTPPVLDSDGSFALVSKLTVDKSRWQQGNVFSCSVMHEALHNHYTQKSLSLSPG
light: not shown
chain: not shown
notes: also called v12529
B1 was tested, and the “Ka, mut/Ka, WT” value (Recombinant human HER2 [1]) was 2.3, the “Ka, mut/Ka, WT” value (Recombinant human HER2 [2]) was 2.1 and the Kd (Recombinant human HER2 [3]) was 9 nM. For the same binder, the Kd (Recombinant human HER2 [4]) was 9.2 nM.

B2: Variant 14043 (antibody, human IgG1, kappa)
heavy: EVQLVESGGGLVQPGGSLRLSCAASGFTFQDYTMDWVRQAPGKGLEWVADVNPNSGGSIYNQRFKGRFTLSVDRSWNTLYLQMNSLRAEDTAVYYCARNLGPSFYFDYWGQGTLVTVSSASTKGPSVFPLAPSSKSTSGGTAALGCLVKDYFPEPVTVSWNSGALTSGVHTFPAVLQSSGLYSLSSVVTVPSSSLGTQTYICNVNHKPSNTKVDKKVEPKSCDKTHTCPPCPAPELLGGPSVFLFPPKPKDTLMISRTPEVTCVVVDVSHEDPEVKFNWYVDGVEVHNAKTKPREEQYNSTYRVVSVLTVLHQDWLNGKEYKCKVSNKALPAPIEKTISKAKGQPREPQVYVYPPSRDELTKNQVSLTCLVKGFYPSDIAVEWESNGQPENNYKTTPPVLDSDGSFALVSKLTVDKSRWQQGNVFSCSVMHEALHNHYTQKSLSLSPG
light: not shown
chain: not shown
notes: OA (one-armed) format; clones 8775, 7919, 4372; also called v14043
For B2, the “Log Ka” value (Recombinant human HER2 [5]) was 9.7, the ΔΔG (Recombinant human HER2 [6]) was -2.7 kcal/mol and the “Log Ka” value (Recombinant human HER2 [7]) was 9.7. It also gave a Ka (Recombinant human HER2 [8]) of 5.3e+09 M⁻¹, a Kd (Recombinant human HER2 [9]) of roughly 0.19 nM and a koff (Recombinant human HER2 [9]) of roughly 1.4e-05 s⁻¹. For the same binder, the kon (Recombinant human HER2 [9]) was 73000 M⁻¹ s⁻¹, the “Ka, mut/Ka, WT” value (Recombinant human HER2 [10]) was roughly 102 fold and the Ka (Recombinant human HER2 [11]) was 5.3e+09 M⁻¹.

B3: variant 12534 (antibody, human IgG1, kappa)
heavy: EVQLVESGGGLVQPGGSLRLSCAASGFTFADYTMDWVRQAPGKGLEWVADVNPNSGGSIYNQRVKGRFTLSVDRSKNTLYLQMNSLRAEDTAVYYCARNLGPSFYFDYWGQGTLVTVSSASTKGPSVFPLAPSSKSTSGGTAALGCLVKDYFPEPVTVSWNSGALTSGVHTFPAVLQSSGLYSLSSVVTVPSSSLGTQTYICNVNHKPSNTKVDKKVEPKSCDKTHTCPPCPAPELLGGPSVFLFPPKPKDTLMISRTPEVTCVVVDVSHEDPEVKFNWYVDGVEVHNAKTKPREEQYNSTYRVVSVLTVLHQDWLNGKEYKCKVSNKALPAPIEKTISKAKGQPREPQVYVYPPSRDELTKNQVSLTCLVKGFYPSDIAVEWESNGQPENNYKTTPPVLDSDGSFALVSKLTVDKSRWQQGNVFSCSVMHEALHNHYTQKSLSLSPG
light: not shown
chain: not shown
notes: also called v12534
B3 was tested, and the “Ka, mut/Ka, WT” value (Recombinant human HER2 [1]) was 7.4, the “Ka, mut/Ka, WT” value (Recombinant human HER2 [2]) was 8.3 and the Kd (Recombinant human HER2 [3]) was 2.8 nM. For the same binder, the Kd (Recombinant human HER2 [4]) was 2.4 nM.

B4: Variant 14055 (antibody, human IgG1, kappa)
heavy: EVQLVESGGGLVQPGGSLRLSCAASGFTFQDYTMDWVRQAPGKGLEWVADVNPNSGGSIYNQRFKGRFTLSVDRSWNTLYLQMNSLRAEDTAVYYCARNLGPWFYFDYWGQGTLVTVSSASTKGPSVFPLAPSSKSTSGGTAALGCLVKDYFPEPVTVSWNSGALTSGVHTFPAVLQSSGLYSLSSVVTVPSSSLGTQTYICNVNHKPSNTKVDKKVEPKSCDKTHTCPPCPAPELLGGPSVFLFPPKPKDTLMISRTPEVTCVVVDVSHEDPEVKFNWYVDGVEVHNAKTKPREEQYNSTYRVVSVLTVLHQDWLNGKEYKCKVSNKALPAPIEKTISKAKGQPREPQVYVYPPSRDELTKNQVSLTCLVKGFYPSDIAVEWESNGQPENNYKTTPPVLDSDGSFALVSKLTVDKSRWQQGNVFSCSVMHEALHNHYTQKSLSLSPG
light: not shown
chain: not shown
notes: OA (one-armed) format; clones 8784, 7919, 4372; also called v14055
In the case of B4, the “Log Ka” value (Recombinant human HER2 [5]) is reported as 9.7, the ΔΔG (Recombinant human HER2 [6]) is reported as -2.6 kcal/mol and the “Log Ka” value (Recombinant human HER2 [7]) is reported as 9.7. For the same binder, the Ka (Recombinant human HER2 [8]) was 4.7e+09 M⁻¹, the Kd (Recombinant human HER2 [9]) was roughly 0.21 nM and the koff (Recombinant human HER2 [9]) was roughly 1.6e-05 s⁻¹. For the same binder, the kon (Recombinant human HER2 [9]) was 73000 M⁻¹ s⁻¹, the “Ka, mut/Ka, WT” value (Recombinant human HER2 [10]) was roughly 77 fold and the Ka (Recombinant human HER2 [11]) was 4.7e+09 M⁻¹.

B5: variant 12533 (antibody, human IgG1, kappa)
heavy: EVQLVESGGGLVQPGGSLRLSCAASGFTFTDYTMDWVRQAPGKGLEWVADVNPNSGGSIYNQRFKGRFTLSVDRSKNTLYLQMNSLRAEDTAVYYCARNLGPSFYFDYWGQGTLVTVSSASTKGPSVFPLAPSSKSTSGGTAALGCLVKDYFPEPVTVSWNSGALTSGVHTFPAVLQSSGLYSLSSVVTVPSSSLGTQTYICNVNHKPSNTKVDKKVEPKSCDKTHTCPPCPAPELLGGPSVFLFPPKPKDTLMISRTPEVTCVVVDVSHEDPEVKFNWYVDGVEVHNAKTKPREEQYNSTYRVVSVLTVLHQDWLNGKEYKCKVSNKALPAPIEKTISKAKGQPREPQVYVYPPSRDELTKNQVSLTCLVKGFYPSDIAVEWESNGQPENNYKTTPPVLDSDGSFALVSKLTVDKSRWQQGNVFSCSVMHEALHNHYTQKSLSLSPG
light: DIQMTQSPSSLSASVGDRVTITCKASQDVSIGVAWYQQKPGKAPKLLIYSASYRYTGVPSRFSGSGSGTDFTLTISSLQPEDFATYYCQQYYIYPAAFGQGTKVEIKRTVAAPSVFIFPPSDEQLKSGTASVVCLLNNFYPREAKVQWKVDNALQSGNSQESVTEQDSKDSTYSLSSTLTLSKADYEKHKVYACEVTHQGLSSPVTKSFNRGEC
chain: not shown
notes: also called v12533
B5 was tested, and the “Ka, mut/Ka, WT” value (Recombinant human HER2 [1]) was 2.9, the “Ka, mut/Ka, WT” value (Recombinant human HER2 [2]) was 3.2 and the Kd (Recombinant human HER2 [3]) was 7.2 nM. The Kd (Recombinant human HER2 [4]) was 6.2 nM.
